Source: PMC9798004 (Frontiers in Psychiatry, 2022)

Experiments:
Experiment in all cases: PathHunter β-arrestin assay
Format in all cases: cell-based
CCR7 = molecular target: T1, CCR7 (Homo sapiens, UniProt P32248); settings: screen, control agonist; CHO, 37C, 2HR
T1 construct: purchased Eurofins DiscoverX (PathHunter gpcrMAX)
T1 sequence (P32248 25-378): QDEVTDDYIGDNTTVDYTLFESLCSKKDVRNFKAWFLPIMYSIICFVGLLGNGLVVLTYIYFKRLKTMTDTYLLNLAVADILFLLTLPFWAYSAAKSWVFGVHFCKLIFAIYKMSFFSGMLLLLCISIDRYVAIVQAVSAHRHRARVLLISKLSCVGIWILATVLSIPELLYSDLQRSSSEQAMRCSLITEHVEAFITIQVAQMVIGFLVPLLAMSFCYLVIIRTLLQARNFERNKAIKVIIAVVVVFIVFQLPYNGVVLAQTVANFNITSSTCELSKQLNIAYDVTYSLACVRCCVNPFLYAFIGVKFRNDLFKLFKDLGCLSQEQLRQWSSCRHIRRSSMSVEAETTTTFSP

CXCR1 = molecular target: T2, CXCR1 (Homo sapiens, UniProt P25024); settings: screen, control agonist; U20S, 37C, 2HR
T2 construct: purchased Eurofins DiscoverX (PathHunter gpcrMAX)
T2 sequence (P25024 1-350): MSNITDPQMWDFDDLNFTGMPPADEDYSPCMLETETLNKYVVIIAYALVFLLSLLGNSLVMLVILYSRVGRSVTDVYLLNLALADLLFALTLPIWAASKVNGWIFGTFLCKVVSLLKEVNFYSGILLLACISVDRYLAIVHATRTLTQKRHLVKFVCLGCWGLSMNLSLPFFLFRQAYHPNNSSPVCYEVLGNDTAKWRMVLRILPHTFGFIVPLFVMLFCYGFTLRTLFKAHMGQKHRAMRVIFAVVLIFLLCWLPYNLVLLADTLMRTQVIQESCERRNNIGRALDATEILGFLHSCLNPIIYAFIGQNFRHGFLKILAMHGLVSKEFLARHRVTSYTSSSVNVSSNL

CXCR2 = molecular target: T3, CXCR2 (Homo sapiens, UniProt P25025); settings: screen, control agonist; CHO, 37C, 2HR
T3 construct: purchased Eurofins DiscoverX (PathHunter gpcrMAX)
T3 sequence (P25025 1-360): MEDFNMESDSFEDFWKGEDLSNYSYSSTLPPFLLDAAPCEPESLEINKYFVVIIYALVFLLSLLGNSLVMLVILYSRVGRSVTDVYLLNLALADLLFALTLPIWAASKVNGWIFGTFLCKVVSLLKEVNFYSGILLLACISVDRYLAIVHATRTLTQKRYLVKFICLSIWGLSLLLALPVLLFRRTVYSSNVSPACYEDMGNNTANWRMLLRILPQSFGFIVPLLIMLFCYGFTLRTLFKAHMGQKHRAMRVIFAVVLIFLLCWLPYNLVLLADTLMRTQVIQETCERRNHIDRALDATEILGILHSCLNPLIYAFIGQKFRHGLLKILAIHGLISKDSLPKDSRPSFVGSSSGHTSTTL

CXCR3 = molecular target: T4, CXCR3 (Homo sapiens, UniProt P49682); settings: screen, control agonist; CHO, 37C, 2HR
T4 construct: purchased Eurofins DiscoverX (PathHunter gpcrMAX)
T4 sequence (P49682 1-368): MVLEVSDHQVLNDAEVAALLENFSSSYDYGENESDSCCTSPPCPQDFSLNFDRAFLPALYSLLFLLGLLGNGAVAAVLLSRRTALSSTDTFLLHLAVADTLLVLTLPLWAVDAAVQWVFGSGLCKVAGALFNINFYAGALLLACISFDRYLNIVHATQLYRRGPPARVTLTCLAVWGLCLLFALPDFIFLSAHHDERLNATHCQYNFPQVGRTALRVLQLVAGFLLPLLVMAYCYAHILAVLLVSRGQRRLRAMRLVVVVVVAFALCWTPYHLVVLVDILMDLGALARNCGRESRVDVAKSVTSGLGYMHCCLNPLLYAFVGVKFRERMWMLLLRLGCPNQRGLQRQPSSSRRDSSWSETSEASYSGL

CXCR4 = molecular target: T5, CXCR4 (Homo sapiens, UniProt P61073); settings: screen, control agonist; C2C12, 37C, 2HR
T5 construct: purchased Eurofins DiscoverX (PathHunter gpcrMAX)
T5 sequence (P61073 whole entry): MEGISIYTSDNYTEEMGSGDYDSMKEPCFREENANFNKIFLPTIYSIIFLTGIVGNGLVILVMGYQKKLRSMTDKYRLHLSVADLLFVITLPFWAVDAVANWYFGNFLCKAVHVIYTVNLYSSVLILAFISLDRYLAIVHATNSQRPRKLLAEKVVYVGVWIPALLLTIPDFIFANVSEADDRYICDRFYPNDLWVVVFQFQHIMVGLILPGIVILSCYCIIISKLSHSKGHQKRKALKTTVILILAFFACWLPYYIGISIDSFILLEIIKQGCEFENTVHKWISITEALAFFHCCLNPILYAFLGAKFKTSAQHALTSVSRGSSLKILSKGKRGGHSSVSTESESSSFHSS

CXCR5 = molecular target: T6, CXCR5 (Homo sapiens, UniProt P32302); settings: screen, control agonist; CHO, 37C, 2HR
T6 construct: purchased Eurofins DiscoverX (PathHunter gpcrMAX)
T6 sequence (P32302 1-372): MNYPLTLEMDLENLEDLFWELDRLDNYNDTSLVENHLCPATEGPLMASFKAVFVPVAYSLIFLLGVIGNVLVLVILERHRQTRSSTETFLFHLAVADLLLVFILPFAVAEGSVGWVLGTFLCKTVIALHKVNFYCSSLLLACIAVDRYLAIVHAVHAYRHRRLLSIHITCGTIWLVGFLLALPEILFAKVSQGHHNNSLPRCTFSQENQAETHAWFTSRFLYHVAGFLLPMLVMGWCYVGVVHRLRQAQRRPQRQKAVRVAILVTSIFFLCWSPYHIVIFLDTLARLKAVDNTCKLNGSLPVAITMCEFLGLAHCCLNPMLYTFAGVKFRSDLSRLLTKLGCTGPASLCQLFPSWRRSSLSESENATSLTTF

CRHR2 = molecular target: T7, CRHR2 (Homo sapiens, UniProt Q13324); settings: screen, control agonist; CHO, RT, 2HR
T7 construct: purchased Eurofins DiscoverX (PathHunter gpcrMAX)
T7 sequence (Q13324 whole entry): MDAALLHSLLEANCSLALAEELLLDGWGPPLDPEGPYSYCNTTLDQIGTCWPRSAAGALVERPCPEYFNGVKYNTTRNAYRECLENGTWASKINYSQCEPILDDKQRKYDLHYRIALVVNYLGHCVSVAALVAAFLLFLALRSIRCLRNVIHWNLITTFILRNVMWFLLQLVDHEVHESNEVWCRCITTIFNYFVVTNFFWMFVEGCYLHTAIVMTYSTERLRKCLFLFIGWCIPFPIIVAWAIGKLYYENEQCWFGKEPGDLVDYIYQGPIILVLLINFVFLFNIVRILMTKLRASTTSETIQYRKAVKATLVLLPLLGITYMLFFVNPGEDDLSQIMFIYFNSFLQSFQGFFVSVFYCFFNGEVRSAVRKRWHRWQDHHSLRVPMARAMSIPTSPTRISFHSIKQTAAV

CX3CR1 = molecular target: T8, CX3CR1 (Homo sapiens, UniProt P49238); settings: screen, control agonist; CHO, 37C, 2HR
T8 construct: purchased Eurofins DiscoverX (PathHunter gpcrMAX)
T8 sequence (P49238 1-355): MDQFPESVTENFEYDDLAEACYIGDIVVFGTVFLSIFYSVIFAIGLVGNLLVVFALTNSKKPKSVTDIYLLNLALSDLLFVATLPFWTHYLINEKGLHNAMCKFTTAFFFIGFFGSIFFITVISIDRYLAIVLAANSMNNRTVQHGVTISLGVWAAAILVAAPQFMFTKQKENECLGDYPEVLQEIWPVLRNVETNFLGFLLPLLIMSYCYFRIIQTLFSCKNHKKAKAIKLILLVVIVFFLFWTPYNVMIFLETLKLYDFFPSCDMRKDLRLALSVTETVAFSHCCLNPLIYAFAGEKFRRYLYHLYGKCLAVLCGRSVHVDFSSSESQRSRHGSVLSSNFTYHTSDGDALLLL

CCL19: control agonist
EC80 (CCR7): 18.9 nM

CXCL8: control agonist
EC80 (CXCR1): 4.95 nM | EC80 (CXCR2): 0.953 nM

CXCL11: control agonist
EC80 (CXCR3): 17.9 nM

CXCL12: control agonist
EC80 (CXCR4): 5.15 nM

CXCL13: control agonist
EC80 (CXCR5): 61.3 nM

Sauvagine
EC80 (CRHR2): 24.7 nM

B1: Fractalkine: control agonist (protein, UniProt P78423 25-397, looked up)
Fractalkine: QHHGVTKCNITCSKMTSKIPVALLIHYQQNQASCGKRAIILETRQHRLFCADPKEQWVKDAMQHLDRQAAALTRNGGTFEKQIGEVKPRTTPAAGGMDESVVLEPEATGESSSLEPTPSSQEAQRALGTSPELPTGVTGSSGTRLPPTPKAQDGGPVGTELFRVPPVSTAATWQSSAPHQPGPSLWAEAKTSEAPSTQDPSTQASTASSPAPEENAPSEGQRVWGQGQSPRPENSLEREEMGPVPAHTDAFQDWGPGSMAHVSVVPVSSEGTPSREPVASGSWTPKAEEPIHATMDPQRLGVLITPVPDAQAATRRQAVGLLAFLGLLFCLGVAMFTYQSLQGCPRKMAGEMAEGLRYIPRSCGSNSYVLVPV
EC80 (CX3CR1): 1.92 nM
